Test results published in US20190002553A1.

Legend:
[1] = target: human IL-11 (Interleukin 11) (human) (UniProt P20809); test: cell-based or functional assay
murine IL-11 (mouse) = murine IL-11 (mouse) (UniProt P47873); test: cell-based or functional assay
Chain of UniProt P47873 (P47873 22-199 limits assumed): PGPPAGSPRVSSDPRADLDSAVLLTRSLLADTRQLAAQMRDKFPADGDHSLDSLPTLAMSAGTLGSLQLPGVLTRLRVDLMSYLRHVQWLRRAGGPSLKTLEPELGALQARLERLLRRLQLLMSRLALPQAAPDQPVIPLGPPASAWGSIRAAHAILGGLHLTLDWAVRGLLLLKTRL

Chain of UniProt P20809 (P20809 22-199 limits assumed): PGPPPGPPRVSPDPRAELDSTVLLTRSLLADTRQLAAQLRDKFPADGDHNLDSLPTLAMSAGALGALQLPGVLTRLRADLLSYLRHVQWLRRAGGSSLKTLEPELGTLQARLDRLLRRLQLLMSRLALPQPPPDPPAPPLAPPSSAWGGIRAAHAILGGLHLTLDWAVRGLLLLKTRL

- percentage of activated (αSMA-positive) fibroblasts, TGFβ1-stimulated human atrial fibroblasts [1]: 28.3%
- percentage of activated fibroblasts normalised to non-stimulated cultures (=1) (fold of non-stimulated cultures) [1]: 0.99
- percentage of activated fibroblasts, TGFβ1-stimulated human atrial fibroblasts, relative to unstimulated cultures [1]: 0.89 fold
- percentage of activated fibroblasts normalised to non-stimulated cultures (=1) (fold of non-stimulated cultures) (murine IL-11 (mouse)): 1.24
- percentage of activated fibroblasts, TGFβ1-stimulated mouse atrial fibroblasts, relative to unstimulated cultures (murine IL-11 (mouse)): 1.44 fold
- percentage of activated fibroblasts, TGFβ1-stimulated mouse dermal fibroblasts (murine IL-11 (mouse)): 39.4%
Substance: neutralising anti-human IL-11 monoclonal antibody (Monoclonal Mouse IgG2A; Clone #22626; Catalog No. MAB218; R&D Systems)
